Test results as given in the Human Domainome abundance scans (Beltran et al. 2025).
± gives the uncertainty stated by the source.

B1: POU domain, class 4, transcription factor 1, residues 266 to 347; numbered along this chain, Q01851 (parent)
chain: RELEAFAERFKQRRIKLGVTQADVGSALANLKIPGVGSLSQSTICRFESLTLSHNNMIALKPILQAWLEEAEGAQREKMNKP

Variants of: B1
Test: abundance fitness (aPCA) (normalised: wild type 0, dead -1); higher = more abundant; growth selection in yeast, the domain comes from the species named
Conditions: Homo sapiens

Row | Variant | abundance fitness
1 | RELEAFAERFKQRRIKLGVTQADVGSALANTKIPGVGSLSQSTICRFESLTLSHNNMIALKPILQAWLEEAEGAQREKMNKP | 0.051 ± 0.035
2 | RELEAFAERFKQRRIKLGVTQADVGSALANVKIPGVGSLSQSTICRFESLTLSHNNMIALKPILQAWLEEAEGAQREKMNKP | -0.006 ± 0.025
3 | RELEAFAERFKQRRIKLGVTQADVGSALANLAIPGVGSLSQSTICRFESLTLSHNNMIALKPILQAWLEEAEGAQREKMNKP | -0.003 ± 0.078
4 | RELEAFAERFKQRRIKLGVTQADVGSALANLCIPGVGSLSQSTICRFESLTLSHNNMIALKPILQAWLEEAEGAQREKMNKP | -0.116 ± 0.094
5 | RELEAFAERFKQRRIKLGVTQADVGSALANLDIPGVGSLSQSTICRFESLTLSHNNMIALKPILQAWLEEAEGAQREKMNKP | 0.022 ± 0.17
6 | RELEAFAERFKQRRIKLGVTQADVGSALANLEIPGVGSLSQSTICRFESLTLSHNNMIALKPILQAWLEEAEGAQREKMNKP | 0.016 ± 0.13
7 | RELEAFAERFKQRRIKLGVTQADVGSALANLFIPGVGSLSQSTICRFESLTLSHNNMIALKPILQAWLEEAEGAQREKMNKP | 0.031 ± 0.26
8 | RELEAFAERFKQRRIKLGVTQADVGSALANLGIPGVGSLSQSTICRFESLTLSHNNMIALKPILQAWLEEAEGAQREKMNKP | -0.101 ± 0.054
9 | RELEAFAERFKQRRIKLGVTQADVGSALANLIIPGVGSLSQSTICRFESLTLSHNNMIALKPILQAWLEEAEGAQREKMNKP | -0.165 ± 0.21
10 | RELEAFAERFKQRRIKLGVTQADVGSALANLLIPGVGSLSQSTICRFESLTLSHNNMIALKPILQAWLEEAEGAQREKMNKP | -0.105 ± 0.064
11 | RELEAFAERFKQRRIKLGVTQADVGSALANLMIPGVGSLSQSTICRFESLTLSHNNMIALKPILQAWLEEAEGAQREKMNKP | 0.018 ± 0.089
12 | RELEAFAERFKQRRIKLGVTQADVGSALANLNIPGVGSLSQSTICRFESLTLSHNNMIALKPILQAWLEEAEGAQREKMNKP | -0.076 ± 0.27
13 | RELEAFAERFKQRRIKLGVTQADVGSALANLPIPGVGSLSQSTICRFESLTLSHNNMIALKPILQAWLEEAEGAQREKMNKP | -0.204 ± 0.13
14 | RELEAFAERFKQRRIKLGVTQADVGSALANLQIPGVGSLSQSTICRFESLTLSHNNMIALKPILQAWLEEAEGAQREKMNKP | -0.022 ± 0.11
15 | RELEAFAERFKQRRIKLGVTQADVGSALANLRIPGVGSLSQSTICRFESLTLSHNNMIALKPILQAWLEEAEGAQREKMNKP | -0.058 ± 0.054
16 | RELEAFAERFKQRRIKLGVTQADVGSALANLSIPGVGSLSQSTICRFESLTLSHNNMIALKPILQAWLEEAEGAQREKMNKP | 0.106 ± 0.096
17 | RELEAFAERFKQRRIKLGVTQADVGSALANLTIPGVGSLSQSTICRFESLTLSHNNMIALKPILQAWLEEAEGAQREKMNKP | 0.025 ± 0.076

Row | Variant | abundance fitness
18 | RELEAFAERFKQRRIKLGVTQADVGSALANLVIPGVGSLSQSTICRFESLTLSHNNMIALKPILQAWLEEAEGAQREKMNKP | -0.009 ± 0.059
19 | RELEAFAERFKQRRIKLGVTQADVGSALANLWIPGVGSLSQSTICRFESLTLSHNNMIALKPILQAWLEEAEGAQREKMNKP | -0.176 ± 0.071
20 | RELEAFAERFKQRRIKLGVTQADVGSALANLYIPGVGSLSQSTICRFESLTLSHNNMIALKPILQAWLEEAEGAQREKMNKP | -0.281 ± 0.14
21 | RELEAFAERFKQRRIKLGVTQADVGSALANLKAPGVGSLSQSTICRFESLTLSHNNMIALKPILQAWLEEAEGAQREKMNKP | -0.139 ± 0.03
22 | RELEAFAERFKQRRIKLGVTQADVGSALANLKCPGVGSLSQSTICRFESLTLSHNNMIALKPILQAWLEEAEGAQREKMNKP | -0.005 ± 0.039
23 | RELEAFAERFKQRRIKLGVTQADVGSALANLKDPGVGSLSQSTICRFESLTLSHNNMIALKPILQAWLEEAEGAQREKMNKP | -0.262 ± 0.054
24 | RELEAFAERFKQRRIKLGVTQADVGSALANLKEPGVGSLSQSTICRFESLTLSHNNMIALKPILQAWLEEAEGAQREKMNKP | -0.22 ± 0.033
25 | RELEAFAERFKQRRIKLGVTQADVGSALANLKFPGVGSLSQSTICRFESLTLSHNNMIALKPILQAWLEEAEGAQREKMNKP | -0.091 ± 0.048
26 | RELEAFAERFKQRRIKLGVTQADVGSALANLKGPGVGSLSQSTICRFESLTLSHNNMIALKPILQAWLEEAEGAQREKMNKP | -0.282 ± 0.025
27 | RELEAFAERFKQRRIKLGVTQADVGSALANLKHPGVGSLSQSTICRFESLTLSHNNMIALKPILQAWLEEAEGAQREKMNKP | -0.147 ± 0.06
28 | RELEAFAERFKQRRIKLGVTQADVGSALANLKKPGVGSLSQSTICRFESLTLSHNNMIALKPILQAWLEEAEGAQREKMNKP | -0.203 ± 0.042
29 | RELEAFAERFKQRRIKLGVTQADVGSALANLKLPGVGSLSQSTICRFESLTLSHNNMIALKPILQAWLEEAEGAQREKMNKP | 0.024 ± 0.028
30 | RELEAFAERFKQRRIKLGVTQADVGSALANLKMPGVGSLSQSTICRFESLTLSHNNMIALKPILQAWLEEAEGAQREKMNKP | -0.056 ± 0.036
31 | RELEAFAERFKQRRIKLGVTQADVGSALANLKNPGVGSLSQSTICRFESLTLSHNNMIALKPILQAWLEEAEGAQREKMNKP | -0.219 ± 0.052
32 | RELEAFAERFKQRRIKLGVTQADVGSALANLKQPGVGSLSQSTICRFESLTLSHNNMIALKPILQAWLEEAEGAQREKMNKP | -0.295 ± 0.04
33 | RELEAFAERFKQRRIKLGVTQADVGSALANLKRPGVGSLSQSTICRFESLTLSHNNMIALKPILQAWLEEAEGAQREKMNKP | -0.217 ± 0.026
34 | RELEAFAERFKQRRIKLGVTQADVGSALANLKSPGVGSLSQSTICRFESLTLSHNNMIALKPILQAWLEEAEGAQREKMNKP | -0.23 ± 0.034
